Results as given in US12319925B2, “Methods and compositions for genomic integration” (Myeloid Therapeutics, Inc., priority 2021, dated 2025).

Legend:
[1] = test system: Jurkat cells; experiment: GFP expression after delivery of LINE-1 plasmid or mRNA with CMV-GFP antisense reporter; format: cell-based; conditions: 4 days post electroporation, relative to mock, FIG. 17B
Procedure: To test retrotransposition in immune cells, LINE-1 plasmid and mRNA were tested with the CMV-GFP antisense reporter cargo by electroporating into Jurkat cells, which is a T cell lymphoma line (FIG. 17A-FIG. 17B). Mock set were electroporated with a plasmid with no GFP sequence. Fold increase is reported relative to mock transfected cells.

[2] = test system: HEK293T cells; experiment: Expression of CD5 binder (ATAK) receptor and GFP by flow cytometry with labeled CD5 after LINE-1 plasmid transfection; format: cell-based, human
Description: HEK 293 cells were transfected with a plasmid having the LINE-1 elements, with a 3 kb cargo sequence encoding recombinant receptor protein CD5-intron-fcr-PI3K (ATAK) that is interrupted by an intron sequence in the CD5 binding domain. The cargo is a chimeric receptor that has a CD5 binding extracellular domain, a FCRγ transmembrane domain, and an intracellular domain having a PI3-kinase recruitment domain. As in the design of the experiment above, the ATAK receptor cannot express unless it is integrated in the genome and the intron is spliced off. Following transfection in HEK293T cells, the receptor expression is detected using labeled CD5 as bait for the CD5 binding extracellular domain. Results shown in FIGS. 9B and 9C show successful integration and expression of the receptor. 36.5% cells were ATAK (CD5 binder) positive (FIG. 9C).
In a further modification, a LINE-1 construct (LINE-1plasmid-cd5_fcr-pi3k_t2a_GFPintron) with a longer 3.7 kb cargo sequence encoding a non-interrupted recombinant receptor protein CD5-intron-fcr-PI3K and an interrupted GFP sequence with a T2A sequence between receptor and the GFP sequences (FIG. 10A). […] Exemplary fluorescence identification of GFP and fluorescent tagged CD5 binding and gating quantitation for experimental runs are shown in FIG. 10C and FIG. 10D.
The cargo GFP gene in the previous construct was replaced with intron interrupted CD5-FcR-P13K CAR-M sequence (Morrissey et al., 2018). The CD5 binder expression was measured by flow cytometry using a Alexa647-conjugated CD5 protein such that retrotransposed cells are CD5-AF647 positive (red histogram) compared with a plasmid transfected negative control cell population (grey histogram) (FIG. 30).
The cargo gene length was extended by adding the intron-interrupted GFP gene after the T2A sequence downstream of the CD5-FcR-PI3K CAR-M sequence (FIG. 31). The CD5 binder expression was measured by flow cytometry using a Alexa647-conjugated CD5 protein. […]

B1: LINE-1 plasmid GFP: plasmid with LINE-1 ORF1, ORF2 and CMV promoter driven split GFP gene in reverse orientation in the 3′UTR (SEQ ID NO: 37) (nucleic acid)
DNA: CGGCCGCGGGGGGAGGAGCCAAGATGGCCGAATAGGAACAGCTCCGGTCTACAGCTCCCAGCGTGAGCGACGCAGAAGACGGTGATTTCTGCATTTCCATCTGAGGTACCGGGTTCATCTCACTAGGGAGTGCCAGACAGTGGGCGCAGGCCAGTGTGTGTGCGCACCGTGCGCGAGCCGAAGCAGGGCGAGGCATTGCCTCACCTGGGAAGCGCAAGGGGTCAGGGAGTTCCCTTTCCGAGTCAAAGAAAGGGGTGACGGACGCACCTGGAAAATCGGGTCACTCCCACCCGAATATTGCGCTTTTCAGACCGGCTTAAGAAACGGCGCACCACGAGACTATATCCCACACCTGGCTCGGAGGGTCCTACGCCCACGGAATCTCGCTGATTGCTAGCACAGCAGTCTGAGATCAAACTGCAAGGCGGCAACGAGGCTGGGGGAGGGGCGCCCGCCATTGCCCAGGCTTGCTTAGGTAAACAAAGCAGCAGGGAAGCTCGAACTGGGTGGAGCCCACCACAGCTCAAGGAGGCCTGCCTGCCTCTGTAGGCTCCACCTCTGGGGGCAGGGCACAGACAAACAAAAAGACAGCAGTAACCTCTGCAGACTTAAGTGTCCCTGTCTGACAGCTTTGAAGAGAGCAGTGGTTCTCCCAGCACGCAGCTGGAGATCTGAGAACGGGCAGACTGCCTCCTCAAGTGGGTCCCTGACCCCTGACCCCCGAGCAGCCTAACTGGGAGGCACCCCCCAGCAGGGGCACACTGACACCTCACACGGCAGGGTATTCCAACAGACCTGCAGCTGAGGGTCCTGTCTGTTAGAAGGAAAACTAACAACCAGAAAGGACATCTACACCGAAAACCCATCTGTACATCACCATCATCAAAGACCAAAAGTAGATAAAACCACAAAGATGGGGAAAAAACAGAACAGAAAAACTGGAAACTCTAAAACGCAGAGCGCCTCTCCTCCTCCAAAGGAACGCAGTTCCTCACCAGCAACAGAACAAAGCTGGATGGAGAATGATTTTGATGAGCTGAGAGAAGAAGGCTTCAGACGATCAAATTACTCTGAGCTACGGGAGGACATTCAAACCAAAGGCAAAGAAGTTGAAAACTTTGAAAAAAATTTAGAAGAATGTATAACTAGAATAACCAATACAGAGAAGTGCTTAAAGGAGCTGATGGAGCTGAAAACCAAGGCTCGAGAACTACGTGAAGAATGCAGAAGCCTCAGGAGCCGATGCGATCAACTGGAAGAAAGGGTATCAGCAATGGAAGATGAAATGAATGAAATGAAGCGAGAAGGGAAGTTTAGAGAAAAAAGAATAAAAAGAAATGAGCAAAGCCTCCAAGAAATATGGGACTATGTGAAAAGACCAAATCTACGTCTGATTGGTGTACCTGAAAGTGATGTGGAGAATGGAACCAA
GFP expression [1]: successful GFP expression

B2: LINE-1plasmid-cd5_fcr-pi3k_t2a_GFPintron: LINE-1 plasmid with 3.7 kb cargo: CD5 binding receptor, T2A, intron-interrupted GFP (SEQ ID NO: 40) (nucleic acid)
DNA: CGGCCGCGGGGGGAGGAGCCAAGATGGCCGAATAGGAACAGCTCCGGTCTACAGCTCCCAGCGTGAGCGACGCAGAAGACGGTGATTTCTGCATTTCCATCTGAGGTACCGGGTTCATCTCACTAGGGAGTGCCAGACAGTGGGCGCAGGCCAGTGTGTGTGCGCACCGTGCGCGAGCCGAAGCAGGGCGAGGCATTGCCTCACCTGGGAAGCGCAAGGGGTCAGGGAGTTCCCTTTCCGAGTCAAAGAAAGGGGTGACGGACGCACCTGGAAAATCGGGTCACTCCCACCCGAATATTGCGCTTTTCAGACCGGCTTAAGAAACGGCGCACCACGAGACTATATCCCACACCTGGCTCGGAGGGTCCTACGCCCACGGAATCTCGCTGATTGCTAGCACAGCAGTCTGAGATCAAACTGCAAGGCGGCAACGAGGCTGGGGGAGGGGCGCCCGCCATTGCCCAGGCTTGCTTAGGTAAACAAAGCAGCAGGGAAGCTCGAACTGGGTGGAGCCCACCACAGCTCAAGGAGGCCTGCCTGCCTCTGTAGGCTCCACCTCTGGGGGCAGGGCACAGACAAACAAAAAGACAGCAGTAACCTCTGCAGACTTAAGTGTCCCTGTCTGACAGCTTTGAAGAGAGCAGTGGTTCTCCCAGCACGCAGCTGGAGATCTGAGAACGGGCAGACTGCCTCCTCAAGTGGGTCCCTGACCCCTGACCCCCGAGCAGCCTAACTGGGAGGCACCCCCCAGCAGGGGCACACTGACACCTCACACGGCAGGGTATTCCAACAGACCTGCAGCTGAGGGTCCTGTCTGTTAGAAGGAAAACTAACAACCAGAAAGGACATCTACACCGAAAACCCATCTGTACATCACCATCATCAAAGACCAAAAGTAGATAAAACCACAAAGATGGGGAAAAAACAGAACAGAAAAACTGGAAACTCTAAAACGCAGAGCGCCTCTCCTCCTCCAAAGGAACGCAGTTCCTCACCAGCAACAGAACAAAGCTGGATGGAGAATGATTTTGATGAGCTGAGAGAAGAAGGCTTCAGACGATCAAATTACTCTGAGCTACGGGAGGACATTCAAACCAAAGGCAAAGAAGTTGAAAACTTTGAAAAAAATTTAGAAGAATGTATAACTAGAATAACCAATACAGAGAAGTGCTTAAAGGAGCTGATGGAGCTGAAAACCAAGGCTCGAGAACTACGTGAAGAATGCAGAAGCCTCAGGAGCCGATGCGATCAACTGGAAGAAAGGGTATCAGCAATGGAAGATGAAATGAATGAAATGAAGCGAGAAGGGAAGTTTAGAGAAAAAAGAATAAAAAGAAATGAGCAAAGCCTCCAAGAAATATGGGACTATGTGAAAAGACCAAATCTACGTCTGATTGGTGTACCTGA
cells express both CAR-M and GFP proteins ([2]; 3.7 kb cargo, flow cytometry signal in Q2, Alexa647-conjugated CD5 protein, FIG. 31): 10.8% | increase of the ATAK receptor and GFP double-positive cells ([2]; 3.7 kb cargo, normalized against mock-transfected cells, FIG. 10B): greater than 10 fold

B3: CD5-intron-fcr-PI3K: LINE-1 plasmid with 3 kb cargo encoding intron-interrupted CD5 binding chimeric receptor (ATAK) (SEQ ID NO: 39) (nucleic acid)
DNA: CGGCCGCGGGGGGAGGAGCCAAGATGGCCGAATAGGAACAGCTCCGGTCTACAGCTCCCAGCGTGAGCGACGCAGAAGACGGTGATTTCTGCATTTCCATCTGAGGTACCGGGTTCATCTCACTAGGGAGTGCCAGACAGTGGGCGCAGGCCAGTGTGTGTGCGCACCGTGCGCGAGCCGAAGCAGGGCGAGGCATTGCCTCACCTGGGAAGCGCAAGGGGTCAGGGAGTTCCCTTTCCGAGTCAAAGAAAGGGGTGACGGACGCACCTGGAAAATCGGGTCACTCCCACCCGAATATTGCGCTTTTCAGACCGGCTTAAGAAACGGCGCACCACGAGACTATATCCCACACCTGGCTCGGAGGGTCCTACGCCCACGGAATCTCGCTGATTGCTAGCACAGCAGTCTGAGATCAAACTGCAAGGCGGCAACGAGGCTGGGGGAGGGGCGCCCGCCATTGCCCAGGCTTGCTTAGGTAAACAAAGCAGCAGGGAAGCTCGAACTGGGTGGAGCCCACCACAGCTCAAGGAGGCCTGCCTGCCTCTGTAGGCTCCACCTCTGGGGGCAGGGCACAGACAAACAAAAAGACAGCAGTAACCTCTGCAGACTTAAGTGTCCCTGTCTGACAGCTTTGAAGAGAGCAGTGGTTCTCCCAGCACGCAGCTGGAGATCTGAGAACGGGCAGACTGCCTCCTCAAGTGGGTCCCTGACCCCTGACCCCCGAGCAGCCTAACTGGGAGGCACCCCCCAGCAGGGGCACACTGACACCTCACACGGCAGGGTATTCCAACAGACCTGCAGCTGAGGGTCCTGTCTGTTAGAAGGAAAACTAACAACCAGAAAGGACATCTACACCGAAAACCCATCTGTACATCACCATCATCAAAGACCAAAAGTAGATAAAACCACAAAGATGGGGAAAAAACAGAACAGAAAAACTGGAAACTCTAAAACGCAGAGCGCCTCTCCTCCTCCAAAGGAACGCAGTTCCTCACCAGCAACAGAACAAAGCTGGATGGAGAATGATTTTGATGAGCTGAGAGAAGAAGGCTTCAGACGATCAAATTACTCTGAGCTACGGGAGGACATTCAAACCAAAGGCAAAGAAGTTGAAAACTTTGAAAAAAATTTAGAAGAATGTATAACTAGAATAACCAATACAGAGAAGTGCTTAAAGGAGCTGATGGAGCTGAAAACCAAGGCTCGAGAACTACGTGAAGAATGCAGAAGCCTCAGGAGCCGATGCGATCAACTGGAAGAAAGGGTATCAGCAATGGAAGATGAAATGAATGAAATGAAGCGAGAAGGGAAGTTTAGAGAAAAAAGAATAAAAAGAAATGAGCAAAGCCTCCAAGAAATATGGGACTATGTGAAAAGACCAAATCTACGTCTGATTGGTGTACCTGAAAGTGATG
cells ATAK (CD5 binder) positive ([2]; HEK293T cells transfected with LINE-1 plasmid, 3 kb cargo, labeled CD5 as bait, FIG. 9C): 36.5%
